Results on 41 sequences are retold here after the nanobody polyreactivity screen of Harvey et al. (2022).

The nature of this data set: yeast display, Sf9 membrane polyspecificity reagent, FACS + sequencing; frameworks hold sequencing errors. Put shortly: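 Nanobodies from a synthetic yeast display library (Saccharomyces cerevisiae BJ5465), induced 36–48 hours with galactose, were stained 1 hour at 4 °C with 10% biotinylated, detergent-solubilized Sf9 membrane reagent, enriched on streptavidin microbeads, then FACS-sorted. Anti-HA (expression) and streptavidin (reagent binding) fluorescence set low and high (top ~1%) gates. Polyreactivity labels come from the gate of origin. Genes were colony-PCR amplified, MiSeq 2 × 250 sequenced and filtered by CDR length.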
As for “QVQLVESAGGLVQAGGRLRLSCAASGSTFSYYAMGWYRQAPGKEREWVAAISRSGGSTYYADSVKGRFTISRDNAKNTVYLQLNSLKPDDTAVYYCNRYYYTVTREFDYWGQGTQVTVSS”, the “polyreactivity (PSR sort gate)” value is “low polyreactivity”.

On to “QVQLVESAGGLVQAGGSLPLSCAASGSTFASNTMGWYRQAPGKERELVAAITQSGGTTYYADSVKGRFTISRDNAKNTVSLQMNSLKPEDTAVYYCATDVGYFYTVVGGYDYWGTGTQVTVSS”, for which the “polyreactivity (PSR sort gate)” value was “low polyreactivity”. In the case of “QVQLVESAGGLVQAGGSLRLICAASGGTFSTYAIGWYRQAPGKEREFVAAITRSGTSTYYADSVKGRFTISRDNAKNTVYLQMNGLNPEDTAVYYCAAGVYSFRYDYWGQGTQVTVSS”, the “polyreactivity (PSR sort gate)” value was “low polyreactivity”.

As to “QVQLVESAGGLVQAGGSLRLSCAASASTFTNYVMGWYRQAPGKERELVAAITKSGGSTYYADSVKGRYTISRDNAKNTVYLQMNRLKPEDTAVYYCAARRTTEFGYWGQGTQVTVSS”, the “polyreactivity (PSR sort gate)” value was “high polyreactivity”. In the case of “QVQLVESAGGLVQAGGSLRLSCAASGFIFGKNAMGLYRQAPGKERELVAVITRSGSRTYYADSVKGRLTISRDNAKNTVYLQMNSLKPEDTAVYYCATDNVYAYDYWGLGTQVTVSS” it was “high polyreactivity”; in that of “QVQLVESAGGLVQAGGSLRLSCAASGFIFHRYAMGWYRQAPGKERELVAAITGRGSSTYYADSVKGRFTISRDNAKNTVYLQMNSLKPEDTAVYYCNAYRYQVYDTGWFGYWGQGTQVTVSS”, “high polyreactivity”; in that of “QVQLVESAGGLVQAGGSLRLSCAASGFIFRNYAMGWYRQEHGKERELVAAISRRGGSTYYADSVKGRFTISRDNAKNTVYLQMNSLKPEDTAVYYCAADYYYSSRIEYYYWGQGTQVTVSS”, “high polyreactivity”.

With “QVQLVESAGGLVQAGGSLRLSCAASGFIFVKYAMGWDRQAPGKERELVAAISSRGGITYYADSVKGRYTISRDNAENTVYLQMISLKPADTAVYYCNTVSRGYRGNYWGQGTQVTVSS”, the “polyreactivity (PSR sort gate)” value is given as “low polyreactivity”. “QVQLVESAGGLVQAGGSLRLSCAASGFIFVKYVMGWYRQEPGKERELVATISNGVSTNYADSVKGRFTISRDNAKNTVYLQMNSLKPEDTAVYDCNTGSNAWYFSGDYWGQGTQVTVSS”: the “polyreactivity (PSR sort gate)” value is “low polyreactivity”. The value for “QVQLVESAGGLVQAGGSLRLSCAASGFTFGWYAMGWYRQAPGKERELVAAISSTGGRTYYADSVKGRFTISRDNAKNTVYLQMNSLKPEDTAVYYCAAAYSYGTEYGYWGQGTQVTVSS” was “high polyreactivity”; that for “QVQLVESAGGLVQAGGSLRLSCAASGFTFRYYAMGWYRQAPGKERELVAAISWSGGRTYYADSVKWRLTISRDNANNTVYLQMNSLKPEDTADYYCAADGYQYFYGDFDYWGQGTQVTVSS” was “high polyreactivity”; that for “QVQLVESAGGLVQAGGSLRLSCAASGFTFYFYAMGWSRQAPGKERELVAAISRSGSRTYYADSVKGRFTISRDNAKNTVYLQMNSLKPEDTAVYYCARVRPRGLYFVLHYDYWGQGTQVTVSS” was “high polyreactivity”. The value for “QVQLVESAGGLVQAGGSLRLSCAASGFTFYYYTMGWYRQAPGKETELVAAITWRGGSTNYADSVKGRFTISRDNAKNTVYLQMNSLKPEDTAVYYCAAVSYWFWPGMDYWGQGTQVTVSS” was “low polyreactivity”; that for “QVQLVESAGGLVQAGGSLRLSCAASGGIFFSYAMGWYRQAPGKERELVAAIRTNGGTTYYADSVKGRFTISRDNAKNNVYLQMNSLTPEDTAVYYCASLPGGYYDRGEYDYWGQGTQVTVSS” was “low polyreactivity”. The value for “QVQLVESAGGLVQAGGSLRLSCAASGIIFPVYAMGWYRQAPGKERELVAAITSSGGSTYYADSVKGRFTISRDNAKNTVYLQMNSLKPEDTAVYYFAAVRKSRFDYGGQGTQVTVSS” was “high polyreactivity”. “QVQLVESAGGLVQAGGSLRLSCAASGIIFTSNTMGWYRQAPGKEREFVASINWNGSSTYADSVKGRFTISRDNAKNTVYLQMNSLKPEDTAVYYCAADWLGYQYGYWGQGTQVTVSS”: the “polyreactivity (PSR sort gate)” value is “low polyreactivity”. In the case of “QVQLVESAGGLVQAGGSLRLSCAASGLIFRFNAMGWYRQAPGKERELVAAITRAGSTYYADSVKGRFTISRDNAKKTVYLQMNSLKPEDTAVYYCAAGQYRLPQRGYGYWGQGTQVTVSS” it was “high polyreactivity”; in that of “QVQLVESAGGLVQAGGSLRLSCAASGLTFPPNAMGWYRHAPGKERELVADSGGSTNYADSVKGRFTISRDNAKNTVYLQMNSLKPEDTAVYYCAAPPYSDGQWDDYWGQGSQVTVSS”, “low polyreactivity”; in that of “QVQLVESAGGLVQAGGSLRLSCAASGNTFPPYPMGWYRQAPGKERELVAAISCGGRTYYADSVKGRFTISRDNAKNTVYLQMNSLKPEDTAVYYCAVYVPNYYSYHYDYWGQGTQVTVSS”, “high polyreactivity”. In the case of “QVQLVESAGGLVQAGGSLRLSCAASGRIFARYAMGWYRQAPGKVRELVAAISASGGSTYYADSVKGRFTISRDNAKYTVYLQMNSLKPEDTAVYYCAARFSYPYRIAFNYWGQGTQVTVSS” it was “low polyreactivity”; in that of “QVQLVESAGGLVQAGGSLRLSCAASGRIFGYYAMGWYRQAPGKERELVARISRGGSTYYADSVKGRFTISRDNAMNTVYLQMTSLKPEDTGVYYCAATRSGYTSYTDDSWGQGTQVTVSS”, “high polyreactivity”; in that of “QVQLVESAGGLVQAGGSLRLSCAASGRIFHKNAMGWYRQAPGKERELVATINYGGSSTYYADSVKGRFTISRDNAKNTVYLQMNSLKPEDTAVYYCAAAPEYLTDHAYWGQGTQVTVSS”, “low polyreactivity”. The value for “QVQLVESAGGLVQAGGSLRLSCAASGRIFSHYAMGWYRQAPGKERELVAAITSSGGSTSYADSVKGRFTISRDNAKNTVYLQMNSLKPEDTAVYYCAAEDTQVRRSPVRPLEDYWGQGTQVTVSS” was “low polyreactivity”; that for “QVQLVESAGGLVQAGGSLRLSCAASGRIFYGNAMGWYRQAPGKERELVAAISKRGGSTHYAASVKGRFTISRDNAKNTVYLQMNSLKPEDTAVYYCATDSYYVGAVHYYYWGQGTQVTVSS” was “high polyreactivity”; that for “QVQLVESAGGLVQAGGSLRLSCAASGRIFYLYAMGWYRQAPGQERELVARITSGSGTYYADSVKGRFTISRDNAKNTVYLQMNSLKPEDTGVYYCAAREPGVCFVGHYTGLDYWGQGTQVTVSS” was “low polyreactivity”. As to “QVQLVESAGGLVQAGGSLRLSCAASGRIFYYAMGWYRQAPGKEREFVAAISGSGGSTNYADSVKGRFTISRDNAKNTVYLQMNSLKPEDTAVYYCNAESWSWGFIYEYEYWGQGTQVTVSS”, the “polyreactivity (PSR sort gate)” value was “high polyreactivity”. Consider “QVQLVESAGGLVQAGGSLRLSCAASGRTFQYYALGWYRQAPGKERELVAAISWSGGSTYYADSVTGRFTISRDNAKNTVYLLMNSLKPEDSAVYYCAKTSSGRKFYWGQGTQVTVSS”, for which the “polyreactivity (PSR sort gate)” value was “high polyreactivity”. “QVQLVESAGGLVQAGGSLRLSCAASGRTFYPYAMGWYRQAPGKARELVAAIRSSGGTTYYADSVKGRFTISRDNAKNTVYVQMNSLKPEDTAVYYCAAFVDRQGGYYWGQGTQVTVSS”: the “polyreactivity (PSR sort gate)” value was “high polyreactivity”.

With “QVQLVESAGGLVQAGGSLRLSCAASGSIFPLYAMGWYRQAPGKERELVAAISYSGGRTYYADSVKGRFTISRDNAKNTVYLQMNSLKPEDTAVYYCNTRQRVIDDYWGQGTQVTVSS”, the “polyreactivity (PSR sort gate)” value was “high polyreactivity”. For “QVQLVESAGGLVQAGGSLRLSCAASGSIFRAYSMGWYRQAPGKERELVAAISWGGGSTSYADSVKGRFTISRDNAKNTVYLQMNSLQPEDTAVYYCNKVSFSKRRDYYWGQGTQVTVSS”, the “polyreactivity (PSR sort gate)” value is “high polyreactivity”. Turning to “QVQLVESAGGLVQAGGSLRLSCAASGSIFYEYAMGWYRQAPGKERELVATITWTDDSTYYADSVKGRFTISRDNAKNTVYLQMNSLKPEDTAVYYCNADLWPGNHDGYWGQGTQVTVSS”, the “polyreactivity (PSR sort gate)” value was “low polyreactivity”. The value for “QVQLVESAGGLVQAGGSLRLSCAASGSIFYRYVMGWYRQAPGKERELVAAITSDGSTNYADSVKGRFTISRDNAKNTVYLQMNSLKPEDSAVYYCNARSYRGRFDYWGLGTQVTVSS” was “low polyreactivity”.

“QVQLVESAGGLVQAGGSLRLSCAASGSIFYTYAMGWYRQAPGKERELVAAISGSGTSTYYADSVKGRFTISRDNAKNTVYLQMNSLKPEDTAVYYCATDGGAAWGRYYWDYGYWGQGTQVTVSS”: the “polyreactivity (PSR sort gate)” value was “low polyreactivity”. In the case of “QVQLVESAGGLVQAGGSLRLSCAASGSNFAIYDMGWYRQAPGKEREFVADISIVGRKKYADSVKGRFTISRDNAKNTVYLQMNSLKPEDTAVYYCTDQDSRDRKFYWGYTRGHWGQGTQVTVSS” it was “low polyreactivity”.

On to “QVQLVESAGGLVQAGGSLRLSCAASGSTFQDYVMGWYRQAPGKERELVAAISRSGGSTYYADSVKGRFTISRDNAKNTVYLQMNSLKPEDTAVYYCAAQQYTYFVPFLTYGEYDYWGQGTQVTVSS”, for which the “polyreactivity (PSR sort gate)” value is on record as “low polyreactivity”. “QVQLVESAGGLVQAGGSLRLSCAASGSTFQYYAMGWYRLAPGKDRELVATITLIAGSTYADSVKGRFTISRDNAKNTVYLQMNSLNPEDTEVYYCAADDGGYETPELLYGGRGDDWGQGTQVTVSS”: the “polyreactivity (PSR sort gate)” value is listed as “low polyreactivity”.

Take “QVQLVESAGGLVQAGGSLRLSCAASGSTFYPYAIGWYRQAPGKERELVAAISSGGSTYYADSVKGRFTISRDNAKNTVYLQMNSLKPEDTAVYYCAADFYYAYYWGQGTQVTVSS”: the “polyreactivity (PSR sort gate)” value is given as “low polyreactivity”. The value for “QVQLVESAGGLVQAGGSLRLSCAASGYIFGVYAMGWYRQAPGKERELVAAISYGVGSTYYADSVKGRFTISRDNAKNTVYLQMNSLKPEDTAVYYCASDVFFYVYEAYLLYYWGQGTQVTVSS” was “low polyreactivity”; that for “QVQLVESAGGLVQAGGSLRLSCAASGYIFWENAMGWYRQAPGKERELVAAITVSGGGTYYADSVKGRFTISRDNAKNTVYLQMNSLKPEDTAVYYCAADEDNPWLWFYYWGHGTQVTVSS” was “low polyreactivity”. The value for “QVQLVESAGGLVQAGGSLRLSCAATGRTFYVNAMGWYRQAPGKERELVAAISSGDSSTYYADSVKGRFTSSRDNAKNTVYLQMNSLKPEDTAVYYCAAEVWVYFEYEYWGQGTQVTVSS” was “high polyreactivity”. For “QVQLVESAGGLVQAGGSLRLSCAPSGRIFYYNAMGWYRQAPGKERELVAAITSGGSTNYADSVKGRFTISRDNAKNTVYLQMNSLKPEDTAVYYCAADYYFYVAGVHYDYWGQGTQVTVSS”, the “polyreactivity (PSR sort gate)” value is reported as “low polyreactivity”.
